The values below are quoted from earlier work in paper PMC7468149.

One series addresses VEGFR2 (Homo sapiens) (UniProt P35968). Nature of the series: SPR. For orientation: SPR reads the build-up and loss of mass on a sensor chip optically.
In the next series the target is VEGFR1 (Homo sapiens) (UniProt P17948). As to the kind of experiment: SPR.
Chain of UniProt P17948 (P17948 27-1338): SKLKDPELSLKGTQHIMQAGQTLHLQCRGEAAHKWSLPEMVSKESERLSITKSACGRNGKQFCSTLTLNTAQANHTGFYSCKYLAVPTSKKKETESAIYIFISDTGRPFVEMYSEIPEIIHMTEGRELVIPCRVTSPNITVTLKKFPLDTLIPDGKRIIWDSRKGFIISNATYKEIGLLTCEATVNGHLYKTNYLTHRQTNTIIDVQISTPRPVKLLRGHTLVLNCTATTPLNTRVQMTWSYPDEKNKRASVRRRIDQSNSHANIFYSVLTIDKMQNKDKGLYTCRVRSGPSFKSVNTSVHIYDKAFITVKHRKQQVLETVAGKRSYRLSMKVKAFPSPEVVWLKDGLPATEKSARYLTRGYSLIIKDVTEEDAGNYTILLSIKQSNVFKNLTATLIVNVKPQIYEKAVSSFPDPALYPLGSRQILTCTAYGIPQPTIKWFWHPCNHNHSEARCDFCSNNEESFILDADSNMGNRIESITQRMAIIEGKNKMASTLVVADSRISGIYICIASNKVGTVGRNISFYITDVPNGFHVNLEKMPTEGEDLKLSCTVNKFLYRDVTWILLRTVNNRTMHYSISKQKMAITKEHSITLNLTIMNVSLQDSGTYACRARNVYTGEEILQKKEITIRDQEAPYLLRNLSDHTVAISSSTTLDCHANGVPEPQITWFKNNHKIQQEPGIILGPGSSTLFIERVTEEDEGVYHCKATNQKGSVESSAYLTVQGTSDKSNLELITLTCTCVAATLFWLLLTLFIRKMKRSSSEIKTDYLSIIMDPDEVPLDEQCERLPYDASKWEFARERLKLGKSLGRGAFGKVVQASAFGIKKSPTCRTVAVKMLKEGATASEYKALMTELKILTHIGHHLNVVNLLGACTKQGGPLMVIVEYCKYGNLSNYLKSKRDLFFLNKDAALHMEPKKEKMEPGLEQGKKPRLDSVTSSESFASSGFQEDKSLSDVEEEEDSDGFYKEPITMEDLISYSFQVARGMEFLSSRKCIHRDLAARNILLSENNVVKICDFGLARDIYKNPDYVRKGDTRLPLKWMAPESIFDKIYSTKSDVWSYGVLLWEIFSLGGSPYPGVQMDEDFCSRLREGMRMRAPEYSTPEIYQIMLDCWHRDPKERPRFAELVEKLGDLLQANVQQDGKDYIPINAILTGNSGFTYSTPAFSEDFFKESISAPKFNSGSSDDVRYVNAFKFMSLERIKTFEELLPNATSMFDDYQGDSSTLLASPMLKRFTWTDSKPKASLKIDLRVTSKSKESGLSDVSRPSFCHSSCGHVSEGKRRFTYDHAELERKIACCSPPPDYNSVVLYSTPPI

Chain of UniProt P35968 (P35968 20-1356): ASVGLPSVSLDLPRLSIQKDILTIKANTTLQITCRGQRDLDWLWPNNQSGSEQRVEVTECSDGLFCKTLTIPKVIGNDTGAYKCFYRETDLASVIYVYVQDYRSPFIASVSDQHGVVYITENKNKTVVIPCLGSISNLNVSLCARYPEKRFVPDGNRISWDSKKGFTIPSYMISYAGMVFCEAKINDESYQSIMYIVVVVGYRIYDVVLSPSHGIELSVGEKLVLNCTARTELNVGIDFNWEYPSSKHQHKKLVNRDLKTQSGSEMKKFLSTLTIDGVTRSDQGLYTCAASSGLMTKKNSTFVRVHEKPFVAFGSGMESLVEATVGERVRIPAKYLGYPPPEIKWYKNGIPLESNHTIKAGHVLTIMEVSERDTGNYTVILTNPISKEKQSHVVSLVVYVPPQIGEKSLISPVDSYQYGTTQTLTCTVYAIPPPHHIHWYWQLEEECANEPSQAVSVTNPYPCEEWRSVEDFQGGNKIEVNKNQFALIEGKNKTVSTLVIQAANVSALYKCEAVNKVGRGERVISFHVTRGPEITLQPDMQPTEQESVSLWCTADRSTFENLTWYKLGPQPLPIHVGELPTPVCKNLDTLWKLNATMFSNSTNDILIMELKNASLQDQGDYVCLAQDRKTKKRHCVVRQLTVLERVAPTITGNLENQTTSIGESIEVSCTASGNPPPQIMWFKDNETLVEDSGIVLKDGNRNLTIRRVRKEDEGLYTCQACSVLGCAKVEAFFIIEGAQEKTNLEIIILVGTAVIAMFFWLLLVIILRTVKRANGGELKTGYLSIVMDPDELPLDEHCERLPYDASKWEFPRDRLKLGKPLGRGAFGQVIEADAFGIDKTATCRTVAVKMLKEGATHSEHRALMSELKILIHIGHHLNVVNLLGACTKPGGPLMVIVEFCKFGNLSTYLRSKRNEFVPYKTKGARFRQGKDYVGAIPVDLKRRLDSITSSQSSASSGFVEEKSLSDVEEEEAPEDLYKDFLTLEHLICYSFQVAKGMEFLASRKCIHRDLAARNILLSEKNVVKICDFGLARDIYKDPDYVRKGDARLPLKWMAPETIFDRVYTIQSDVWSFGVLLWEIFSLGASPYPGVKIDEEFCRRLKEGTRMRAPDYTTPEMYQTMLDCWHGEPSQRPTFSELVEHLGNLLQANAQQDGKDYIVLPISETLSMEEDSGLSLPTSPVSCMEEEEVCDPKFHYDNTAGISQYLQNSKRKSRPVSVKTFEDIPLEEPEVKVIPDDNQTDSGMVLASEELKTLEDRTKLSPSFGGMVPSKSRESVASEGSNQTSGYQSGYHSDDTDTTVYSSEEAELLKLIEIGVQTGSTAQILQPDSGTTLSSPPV

As a reminder, the Kd is the equilibrium constant for the complex coming apart. For the substance VEGF-A165a (from UniProt P15692), the Kd with VEGFR2 (Homo sapiens) is 0.052 nM; with VEGFR1 (Homo sapiens) it was 0.0075 nM.
